# According to patent US20250215091A1, “Anti-GAL3 Antibodies and Compositions” (Les Laboratoires Servier, priority 2022, published 2025):
# T1: Gal3 CRD domain from dog (dog, UniProt P38486 152-296, limits assumed)
# T1 construct: domain: CRD domain; also called dog Gal3-CRD
# T1 sequence (looked up): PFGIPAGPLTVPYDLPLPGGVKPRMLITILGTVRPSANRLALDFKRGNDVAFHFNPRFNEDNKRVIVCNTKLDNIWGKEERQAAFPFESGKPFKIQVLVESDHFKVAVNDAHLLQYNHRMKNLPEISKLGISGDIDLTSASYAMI
# T2: Gal3 CRD domain from rat (rat, UniProt P08699 118-262, limits assumed)
# T2 construct: domain: CRD domain; also called rat Gal3-CRD
# T2 sequence (looked up): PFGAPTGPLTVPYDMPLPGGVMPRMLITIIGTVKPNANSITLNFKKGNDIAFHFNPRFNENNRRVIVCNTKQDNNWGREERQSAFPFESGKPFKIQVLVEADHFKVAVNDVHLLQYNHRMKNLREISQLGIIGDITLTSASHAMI
# B1: anti-Gal3 antibody H10 (antibody, V domains shown)
# VH: EVQLVESGGSLVKPGGSLRLSCAASGFTFSNYYMNWVRQAPGKGLEWISYINGASRDISYADFVKGRFTISRDNAKNSLYLQMNSLRAEDTAVYYCVRSSYGYSNYGSGMDVWGRGTLVTVSS
# VL: QSVLTQPASVSGSPGQSITISCAGTSSDVGGSYNVAWYQQHPGKAPKLMIYNDANRPSGVSNRFSGSKSGNTASLTISGLQAEDEADYYCSSNTADSTRVFGGGTKLEIK
# B2: H10: anti-Gal3 monoclonal antibody, IgG1 format; VH SEQ ID NO 44, VL SEQ ID NO 45 (antibody, V domains shown)
# VH: EVQLVESGGSLVKPGGSLRLSCAASGFTFSNYYMNWVRQAPGKGLEWISYINGASRDISYADFVKGRFTISRDNAKNSLYLQMNSLRAEDTAVYYCVRSSYGYSNYGSGMDVWGRGTLVTVSS
# VL: QSVLTQPASVSGSPGQSITISCAGTSSDVGGSYNVAWYQQHPGKAPKLMIYNDANRPSGVSNRFSGSKSGNTASLTISGLQAEDEADYYCSSNTADSTRVFGGGTKLEIK
# Tests used:
# [1] = target: T3, full length mouse Galectin-3 (mouse, UniProt P16110 2-264); experiment: SPR Biacore T-200, antibody captured by anti-human Fc, Gal3 in solution
# T3 construct: Printed as 'full length'; recombinant, immobilized through a histidine tag; also called m-Gal3-FL; murine Gal3
# Experimental: (§1) The CM5 sensor surface was first immobilized with an anti-human Fc mAb using a standard protocol. The entire sensor surface was first activated by injecting a 1:1 (v/v) mixture of 400 mM EDC and 100 mM NHS at a flow rate of 10 μL/minute for 7 minutes. Monoclonal anti-human Fc antibody (Millipore AP113), 25 μg/mL in Na acetate pH5, 360 s were flowed at 10 μL/minute to reach 10000 RU on both flow cells followed by the injection of 1 M ethanolamine, pH8.5 for 7 minutes at a flow rate of 10 μL/minute. During the entire immobilization procedure, HBS-P was used as the running buffer.
# (§2) Antibody samples were prepared at 5 μg/ml and were injected for 30 seconds at 10 μL/minute. In general, 400 to 680 resonance units of antibodies were captured on the chip.
# [2] = target: T4, full length human Galectin-3 (human, UniProt P17931 2-250); experiment: as above
# T4 construct: Printed as 'full length'; recombinant, immobilized through a histidine tag; also called hu-Gal3-FL; Hu-Gal3-FL
# Experimental: as §1, §2
# [3] = target: T5, CRD domain of human Galectin-3 (human, UniProt P17931 106-250); experiment: competitive ELISA, inhibition of ASF binding to immobilized Hu-Gal3-CRD
# T5 construct: Histidine-tagged; also called hu-Gal3-CRD; Hu-Gal3-CRD
# Experimental: The inhibitory properties and IC50 of the anti-Gal3 antibodies were determined in an ELISA competitive assay by measuring the binding of ASF to immobilized CRD domain of human Gal3 in absence or presence of the antibodies at different concentrations.
# The inhibition assay was performed on Hu-Gal3-CRD which was immobilized at 1 μg/mL through its His-tag on functionalized microplates. A 2-fold or 3-fold serial dilution was carried-out with the purified IgGs and added to the wells with immobilized Hu-Gal3-CRD. ASF (A1908-Sigma reference) was added at 8 μg/mL in each well with or without IgGs. ASF binding to Hu-Gal3-CRD was detected with the HRP-labeled anti-ASF sheep antibody. IC50 were estimated according to the model equation Y=Bottom+(Top−Bottom)/(1+(X/IC50)). Indicative maximal percentages of inhibition were obtained with the formula: 100%−(((mean of bottom plateau values of IgGs)×100%)/mean of irrelevant IgG values)
# [4] = target: T3, full length mouse Galectin-3; experiment: dose-response ELISA on immobilized m-Gal3-FL, IgG
# Experimental: (§3) To determine the half maximal effective concentration (EC50) of the antibodies, ELISA dose-response experiments were performed on Hu-Gal3-FL and on m-Gal3-FL.
# (§4) Hu-Gal3-FL and m-Gal3-FL were immobilized at 3 μg/mL through their His-tag on functionalized microplates as before. A 3.3-fold serial dilution was carried-out with the purified IgGs, added to the wells containing immobilized Hu-Gal3-FL or m-Gal3-FL and detected with an anti-Fab.HRP antibody.
# [5] = target: T6, human full-length Galectin-1 (human, UniProt P09382 2-135); experiment: ELISA on immobilised antigen (3 µg/mL), purified IgG at 15-20 µg/mL, anti-Fab.HRP, OD 450 nm
# T6 construct: full-length; Histidine-tagged; also called Hu-Gall; Gall
# Experimental: (§5) IgG specificity to Gal3 was tested by checking the absence of binding on human Gall and Gal7 by ELISA.
# (§6) Hu-Gall and Hu-Gal7 were immobilized at 3 μg/mL. Purified IgGs were added into the wells (15-20 μg/mL final concentration) and detected with an anti-Fab.HRP antibody. Rabbit antibodies directed against Gall (Abcam ab25138 reference) and Gal7 (Abcam ab108623 reference) were used at 5 μg/mL as antigen-coating positive controls and detected with an anti-rabbit.HRP secondary antibody (7074S-Cell Signaling reference).
# [6] = target: T7, human full-length Galectin-7 (human, UniProt P47929 1-136); experiment: as above
# T7 construct: full-length; Histidine-tagged; also called Hu-Gal7; Gal7
# Experimental: as §5, §6
# [7] = target: T4, full length human Galectin-3; experiment: dose-response ELISA on immobilized Hu-Gal3-FL, IgG
# Experimental: as §3, §4
# [8] = target: T3, full length mouse Galectin-3; experiment: ratio of the ELISA EC50 values on Hu-Gal3-FL and m-Gal3-FL
# Experimental: as §3, §4
# [9] = target: T1, Gal3 CRD domain from dog; experiment: SPR single-cycle kinetics, captured antibody, Gal3-CRD 0.5-50 nM
# Experimental: as §1, §2
# (§7) Kd values were also determined by SPR using […] kinetics analysis. A total of 5 concentrations of Gal3 CRD domain from human, dog, rat and cynomolgus (Novalix) [0.5-50] nM were injected over the antibody capture surfaces for 210 seconds followed by a dissociation phase of 600 seconds at 30 μL/minute. At the end of each cycle, capture surfaces were regenerated by 2 injections of glycine pH 1.5, for 30 seconds at 10 μL/minute, followed by an extra wash with glycine pH 1.5. Fresh antibody was captured at the beginning of each cycle.
# [10] = target: T5, CRD domain of human Galectin-3; experiment: as above
# Experimental: as §1, §2, §7
# [11] = target: T8, Gal3 CRD domain from cynomolgus (cynomolgus, UniProt A0A7N9CYL1 103-247); experiment: as above
# T8 construct: domain: CRD domain; also called cynomolgus Gal3-CRD
# Experimental: as §1, §2, §7
# [12] = target: T2, Gal3 CRD domain from rat; experiment: as above
# Experimental: as §1, §2, §7
# [13] = tested on: plasma TNF alpha; experiment: Rat ARDS model (LPS challenge): plasma TNF alpha (MSD); assay type: in vivo; conditions: 4 h following LPS challenge; vs LPS group; FIG. 18
# Experimental: (§8) Positive control rats received 3 doses of sterile phosphate buffer at day minus 11, minus 6 and minus 1 prior LPS challenge (0.25 mg/kg by subcutaneous route at day 1). Negative control rats received one oral dose of Dexamethasone at 10 mg/kg (dissolved in 0.5% carboxymethyl cellulose in deionized water) 2 hours prior LPS challenge (0.25 mg/kg by subcutaneous route at day 1). LPS (lipopolysaccharide) causes an acute inflammatory response, whereas dexamethasone has anti-inflammatory effects thus being the reference treatment in this model.
# (§9) Antibody-treated rats received 3 doses of antibodies (14 mg/kg) at day minus 11, minus 6 and minus 1 prior to LPS challenge (0.25 mg/kg by subcutaneous route at day 1). Each antibody was solubilized in sterile PBS before injection.
# (§10) Control rats of the experiment received 3 doses of sterile phosphate buffer at day minus 11, minus 6 and minus 1 without LPS challenge at day 1.
# For all rats, plasma sampling was performed 4 h following LPS challenge.
# The impact of anti-Gal3 antibody treatment in LPS challenged rats were evaluated on plasma cytokine levels, namely TNF alpha and KC-GRO cytokines, and compared to the positive control group (LPS challenge with PBS treatment) (respectively FIG. 18A and FIG. 18B). TNF alpha and KC-GRO were quantified by using the MSD technology from Mesoscale.
# [14] = tested on: rat model of ARDS; experiment: Rat ARDS model (LPS challenge): neutrophils counts in BALF; assay type: in vivo; conditions: antibodies 14 mg/kg x3 prior to LPS; dexamethasone 10 mg/kg oral; vs LPS group; FIG. 16
# Experimental: as §8, §9, §10
# (§11) The impact of anti-Gal3 antibody treatment in LPS challenged rats were evaluated by quantification of neutrophils in Bronchoalveolar Lavage Fluid and compared to the positive control group (LPS challenge with PBS treatment) (FIG. 16). […] Neutrophils numeration levels were decreased after treatment with anti-inflammatory dexamethasone.
# [15] = tested on: murine model of HOCI-induced fibrosis; experiment: HOCI-induced murine fibrosis model: skin thickness; assay type: in vivo, mice; conditions: second experiment, sustained effect until day 63
# Experimental: In a first experiment, control mice (n=12) received a daily intradermal injection of 300 μL of sterile phosphate buffer saline (PBS) for 5 consecutive days per week, for a duration of 42 days. HOCI alone and HOCI with antibody (HOCI-antibody) treated mice (n=12 per group) received a daily intradermal injection of 300 μL of HOCI for 5 consecutive days per week, for a duration of 42 days. Antibody-treated mice also received a subcutaneous injection of 20 mg/kg antibody, starting at day minus one and every 5 days between day 5 and day 40. Each antibody was solubilized in sterile, endotoxin-free PBS before injection. In a second experiment, the same protocol was applied, except that duration of the study was 63 days and antibodies were given every 7 days starting at day minus 1 until day 62.
# Mice that received daily injection of HOCI were also treated by intratracheal instillation of 0.5 mg/kg of TD139 compound (HOCI-TD139), a small molecule Gal3 inhibitor. In a first experiment, the administrations started from day 21 and the compound was given every 3 days until day 39. In a second experiment, the administrations started from day 20 and the compound was given every 3 days until day 62. TD139 was initially dissolved in 100% DMSO then diluted 50-fold in endotoxin-free PBS before administration.
# The evolution of skin thickness was monitored by using an external caliper, every seven days until sacrifice.
# [16] = tested on: rat model of ARDS; experiment: Rat ARDS model (LPS challenge): total BALF protein (BCA assay); assay type: in vivo; conditions: antibodies 14 mg/kg x3 prior to LPS; dexamethasone 10 mg/kg oral; vs LPS group; FIG. 17
# Experimental: as §8, §9, §10
# as §11, with “proteins (by BCA assay)” for “neutrophils”, “BALF” for “Bronchoalveolar Lavage Fluid”, “17). The presence of protein in BALF reflects the damage to the air-blood barrier.” for “16).”, “Total BALF protein” for “Neutrophils”
# T5 sequence (P17931 106-250 limits assumed): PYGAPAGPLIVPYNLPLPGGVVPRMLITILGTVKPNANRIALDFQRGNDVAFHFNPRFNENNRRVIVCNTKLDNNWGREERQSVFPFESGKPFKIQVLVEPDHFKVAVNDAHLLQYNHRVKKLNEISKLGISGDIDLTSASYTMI
# T3 sequence (P16110 2-264 limits assumed): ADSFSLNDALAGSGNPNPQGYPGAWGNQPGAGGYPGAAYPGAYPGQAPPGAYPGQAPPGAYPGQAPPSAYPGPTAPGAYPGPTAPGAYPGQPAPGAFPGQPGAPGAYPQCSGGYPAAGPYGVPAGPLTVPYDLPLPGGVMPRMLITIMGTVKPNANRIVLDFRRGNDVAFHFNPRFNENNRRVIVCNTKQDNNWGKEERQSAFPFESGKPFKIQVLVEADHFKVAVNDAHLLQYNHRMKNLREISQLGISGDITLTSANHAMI
# T4 sequence (P17931 2-250 limits assumed): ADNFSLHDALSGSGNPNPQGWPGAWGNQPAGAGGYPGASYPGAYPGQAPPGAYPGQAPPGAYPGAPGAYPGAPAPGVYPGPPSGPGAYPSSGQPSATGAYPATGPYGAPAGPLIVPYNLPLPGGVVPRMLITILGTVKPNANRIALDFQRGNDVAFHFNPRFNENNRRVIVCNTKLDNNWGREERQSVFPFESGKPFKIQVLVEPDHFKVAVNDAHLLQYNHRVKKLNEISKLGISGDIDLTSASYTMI
# T6 sequence (P09382 2-135 limits assumed): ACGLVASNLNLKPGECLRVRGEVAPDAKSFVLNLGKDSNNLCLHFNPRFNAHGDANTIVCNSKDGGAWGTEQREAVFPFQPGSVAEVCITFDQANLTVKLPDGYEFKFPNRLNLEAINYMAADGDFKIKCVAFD
# T7 sequence (P47929 whole entry): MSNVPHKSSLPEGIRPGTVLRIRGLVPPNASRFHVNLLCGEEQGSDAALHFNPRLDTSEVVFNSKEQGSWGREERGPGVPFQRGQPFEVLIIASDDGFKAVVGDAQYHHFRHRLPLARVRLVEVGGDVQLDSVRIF
Molecule,Kd [1],Kd [2],IC50 [3],Max % inhibition [3],EC50 [4],binding result [5],binding result [6],EC50 [7],Ratio (Human/mouse Gal3 EC50 ratio) [8],Kd [9],Kd [10],Kd [11],Kd [12],TNF alpha plasma levels [13],neutrophils counts in BALF [14],"HOCI-induced increase in skin thickness ([15]; 63 days, antibody 20 mg/kg s.c. every 7 days, FIG. 7B)",day from which reduction of skin thickness was significant [15],total BALF protein [16]
B1,2.72 nM,4.5 nM,2.7 nM,89%,5.9 nM,no binding (tested: 15-20 µg/mL),no binding (tested: 15-20 µg/mL),0.2 nM,30,24 nM,8.2 nM,5.6 nM,12 nM,–,–,–,–,–
B2,–,–,–,–,–,–,–,–,–,–,–,–,–,"also decreased, displaying an intermediary profile",also decreased,significantly reduced,14 days,also decreased
